{"source": "paper PMC11996679", "about": "“Molecular basis of human nuclear and mitochondrial tRNA 3′ processing” (Nature Structural & Molecular Biology, 2024)", "binders": {"B1": {"name": "Δ1–91 TRMT10C (enzyme, human, UniProt Q7L0Y3 92-403, looked up)", "chain": "AATREFIEMWRLLGREVPEHITEEELKTLMECVSNTAKKKYLKYLYTKEKVKKARQIKKEMKAAAREEAKNIKLLETTEEDKQKNFLFLRLWDRNMDIAMGWKGAQAMQFGQPLVFDMAYENYMKRKELQNTVSQLLESEGWNRRNVDPFHIYFCNLKIDGALHRELVKRYQEKWDKLLLTSTEKSHVDLFPKDSIIYLTADSPNVMTTFRHDKVYVIGSFVDKSMQPGTSLAKAKRLNLATECLPLDKYLQWEIGNKNLTLDQMIRILLCLKNNGNWQEALQFVPKRKHTGFLEISQHSQEFINRLKKAKT", "notes": "TRMT10C (MRPP1), human, Δ1–91, used for the structural studies; also called MRPP1"}, "B2": {"name": "SDR5C1 (enzyme, human)", "chain": "MAAACRSVKGLVAVITGGASGLGLATAERLVGQGASAVLLDLPNSGGEAQAKKLGNNCVFAPADVTSEKDVQTALALAKGKFGRVDVAVNCAGIAVASKTYNLKKGQTHTLEDFQRVLDVNLMGTFNVIRLVAGEMGQNEPDQGGQRGVIINTASVAAFEGQVGQAAYSASKGGIVGMTLPIARDLAPIGIRVMTIAPGLFGTPLLTSLPEKVCNFLASQVPFPSRLGDPAEYAHLVQAIIENPFLNGEVIRLDGAIRMQP", "notes": "also called MRPP2; HSD17B10"}, "B3": {"name": "5-tRNAGln-24 Trailer(Tyr) (structured_RNA)", "RNA": "GGUGAUAGGAUGGGGUGUGAUAGGUGGCACGGAGAAUUUUGGAUUCUCAGGGAUGGGUUCGAUUCUCAUAGUCCUAGGCUCCGAGGUGAUUUUCAAGCUCG"}}, "key": {"Δ1–31 ELAC2-Asp550Asn": {"target": "T1, Δ1–31 ELAC2-Asp550Asn (human, UniProt Q9BQ52 32-826, Asp550Asn)", "T1 construct": "Cloned in the 438-B vector (Addgene plasmid 55219) with an N-terminal 6xHis tag and a TEV site; the tag was removed with TEV protease; also called ELAC2^mut; ELAC2(D550N); source: Hi-Five insect cells (baculovirus), purified (HisTrap, TEV cleavage, heparin, Superdex 200); not shown: 6xHis, N-terminal, cleaved", "T1 sequence (looked up)": "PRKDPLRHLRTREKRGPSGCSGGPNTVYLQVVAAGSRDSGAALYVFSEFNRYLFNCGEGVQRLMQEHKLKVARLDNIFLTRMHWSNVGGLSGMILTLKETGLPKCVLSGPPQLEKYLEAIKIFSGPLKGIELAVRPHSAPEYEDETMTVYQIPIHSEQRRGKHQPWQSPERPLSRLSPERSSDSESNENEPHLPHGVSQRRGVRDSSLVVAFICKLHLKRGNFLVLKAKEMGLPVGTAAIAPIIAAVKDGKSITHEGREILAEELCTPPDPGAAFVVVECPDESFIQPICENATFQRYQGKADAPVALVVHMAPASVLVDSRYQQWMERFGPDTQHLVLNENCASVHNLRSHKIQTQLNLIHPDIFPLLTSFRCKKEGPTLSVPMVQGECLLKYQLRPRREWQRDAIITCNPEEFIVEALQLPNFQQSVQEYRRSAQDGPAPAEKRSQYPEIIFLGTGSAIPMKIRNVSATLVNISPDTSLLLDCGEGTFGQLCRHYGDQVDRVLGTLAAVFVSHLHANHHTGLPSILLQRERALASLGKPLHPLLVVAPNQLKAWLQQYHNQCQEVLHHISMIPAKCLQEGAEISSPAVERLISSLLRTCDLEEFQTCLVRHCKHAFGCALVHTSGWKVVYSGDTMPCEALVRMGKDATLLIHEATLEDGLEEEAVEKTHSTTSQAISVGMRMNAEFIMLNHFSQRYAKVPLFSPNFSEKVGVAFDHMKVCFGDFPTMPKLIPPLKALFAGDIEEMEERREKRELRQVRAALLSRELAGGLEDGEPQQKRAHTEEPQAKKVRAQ", "assay": "cryo-EM structure; mt-RNase Z^Gln: 5–tRNA^Gln–24 first 5′ processed with Δ1–91 TRMT10C–SDR5C1 and Δ1–45 PRORP, then Δ1–31 ELAC2-Asp550Asn added, on ice 60 min; GraFix 10–30% sucrose gradient with 0–0.015% glutaraldehyde, 25 mM Na–HEPES pH 7.5, 20 mM NaCl, 20 μM ZnCl2; pre-mt-tRNA^Gln is part of the complex", "conditions": "both partners purified"}, "Δ1–91 TRMT10C": {"target": "B1", "assay": "cryo-EM structure; mt-RNase Z^Gln: 5–tRNA^Gln–24 first 5′ processed with Δ1–91 TRMT10C–SDR5C1 and Δ1–45 PRORP, then Δ1–31 ELAC2-Asp550Asn added, on ice 60 min; GraFix 10–30% sucrose gradient with 0–0.015% glutaraldehyde, 25 mM Na–HEPES pH 7.5, 20 mM NaCl, 20 μM ZnCl2; pre-mt-tRNA^Gln is part of the complex", "conditions": "both partners purified"}, "[1]": {"target": "T2, ELAC2 (cryo-EM);TRMT10C;SDR5C1 (Homo sapiens;Homo sapiens;Homo sapiens, UniProt Q9BQ52;Q7L0Y3;Q99714 32-826;40-403;1-261, ||)", "T2 sequence 1": "T1 sequence (looked up) with N519D", "T2 sequence 2": "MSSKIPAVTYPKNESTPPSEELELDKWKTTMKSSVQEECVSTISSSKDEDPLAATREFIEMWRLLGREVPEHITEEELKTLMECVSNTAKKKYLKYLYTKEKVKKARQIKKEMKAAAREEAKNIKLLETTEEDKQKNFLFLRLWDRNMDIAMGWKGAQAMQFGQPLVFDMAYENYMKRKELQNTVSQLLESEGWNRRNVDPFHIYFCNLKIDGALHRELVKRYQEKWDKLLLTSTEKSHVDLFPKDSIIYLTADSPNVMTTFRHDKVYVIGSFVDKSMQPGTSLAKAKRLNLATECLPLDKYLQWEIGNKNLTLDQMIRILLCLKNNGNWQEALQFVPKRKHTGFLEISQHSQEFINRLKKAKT", "T2 sequence 3": "B2 chain", "assay": "cryo-EM structure; mt-RNase Z Gln complex (EMD-19455); FA: 20 mM Tris-HCl pH 8, 80 mM NaCl, 40 mM KCl, 3 mM MgCl2, 5% glycerol, 2 mM DTT; 20 nM RNA; 20 min at 20 C, read at room temperature", "conditions": "protein: recombinant;recombinant;recombinant; tags: N-terminal 6xHis-TEV (cleaved);;; copies: 1;1;4; tRNA cloverleaf with canonical elbow"}}, "note": "Numbering of substitutions follows the chain as printed.", "data": [{"binder": "B1", "values": [{"measurement": "binding result", "setting": "Δ1–31 ELAC2-Asp550Asn", "result": "binds"}]}, {"binder": "B2", "values": [{"measurement": "binding result", "setting": "Δ1–91 TRMT10C", "result": "binds"}]}, {"binder": "B3", "values": [{"measurement": "binding result", "setting": "[1]", "result": "binds"}]}]}
